Data published in patent publication CN112794909A (GUANGZHOU EXCELMAB BIOMEDICAL TECH CO LTD, dated 2021).

T1: 重组人TIGIT蛋白抗原 (human, UniProt Q495A1 21-141, limits assumed)
T1 construct: Made as TIGIT-Fc in 293F, cut with TEV protease and purified; also called TIGIT抗原; 人TIGIT抗原
T1 sequence (looked up): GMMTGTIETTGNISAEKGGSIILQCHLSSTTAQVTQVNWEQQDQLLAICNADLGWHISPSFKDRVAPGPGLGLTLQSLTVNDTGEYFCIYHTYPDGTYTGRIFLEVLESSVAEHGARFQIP

T2: LAG-3抗原 (UniProt P18627 23-450, limits assumed)
T2 sequence (looked up): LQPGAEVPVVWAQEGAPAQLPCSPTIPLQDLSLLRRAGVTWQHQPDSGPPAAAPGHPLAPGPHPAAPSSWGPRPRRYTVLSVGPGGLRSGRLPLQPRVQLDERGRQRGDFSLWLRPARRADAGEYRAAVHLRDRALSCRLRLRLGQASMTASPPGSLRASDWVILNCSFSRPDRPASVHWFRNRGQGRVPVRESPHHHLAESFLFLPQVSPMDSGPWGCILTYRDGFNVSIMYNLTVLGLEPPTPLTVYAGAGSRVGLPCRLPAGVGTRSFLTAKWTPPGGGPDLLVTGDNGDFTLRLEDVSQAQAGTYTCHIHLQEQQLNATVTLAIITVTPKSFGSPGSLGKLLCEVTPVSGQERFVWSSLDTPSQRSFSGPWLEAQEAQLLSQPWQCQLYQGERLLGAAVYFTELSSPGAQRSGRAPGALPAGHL

T3: CTLA4抗原 (UniProt P16410 36-161, limits assumed)
T3 sequence (looked up): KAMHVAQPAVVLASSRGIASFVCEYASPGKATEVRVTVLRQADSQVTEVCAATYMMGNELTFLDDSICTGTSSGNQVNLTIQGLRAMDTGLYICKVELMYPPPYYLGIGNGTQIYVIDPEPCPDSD

B1: 鼠源抗TIGIT单链抗体mT251 (mT251 scFv-Fc重组蛋白) (scFv, V domains shown)
VH: DVKLKESGPSLVKPSQTLSLTCSVTGDSITSGFWNWIRKFPGNKLEYMGYISYSGSSYYNPSLKSRISITRDTSKNQYYLQLNSVTTEDTATYYCAAGDFGNYGYAMDNWGQGTSVTVSS
VL: DVLMTQSHKFMSTSVGDRVSITCKASQRVTTAVAWYQQKPGQSPKLLIYSASYRYTGVPDRFTGSGSGTDFTFTITSVQPEDLAIYYCQQYYSTPLTFGAGTKLEIK
B2: 人源化抗体hmT251 (antibody, V domains shown)
VH: DVRLKESGPGLVKPSQTLSLTCTVSGGSITSGFWNWIRKHPGNGLEYIGYISYSGSSYYNPSLKSRVTISRDTSKNQYSLKLSSVTAADTAVYYCAAGDFGNYGYAMDVWGQGTTVTVSS
VL: DVQMTQSPSSLSASVGDRVTITCKASQRVTTAVAWYQQKPGKSPKLLIYSASYRYTGVPDRFTGSGSGTDFTLTISSLQPEDFATYYCQQYYSTPLTFGGGTKVEIK
notes: also called 人源化抗TIGIT抗体hmT251; 人源化单链抗体hmT251

Assays:
重组人TIGIT蛋白抗原 [1] = biological target: T1, 重组人TIGIT蛋白抗原; experiment: ELISA, TIGIT antigen coated
重组人TIGIT蛋白抗原 [2] = biological target: T1, 重组人TIGIT蛋白抗原; experiment: ELISA, TIGIT antigen coated, HRP anti-human IgG
LAG-3抗原 = biological target: T2, LAG-3抗原; experiment: ELISA, antigen coated
PD-1抗原 = PD-1抗原 (UniProt Q15116 25-167, limits assumed); experiment: ELISA, antigen coated
PD-L1抗原 = PD-L1抗原 (UniProt Q9NZQ7 19-238, limits assumed); experiment: ELISA, antigen coated
CTLA4抗原 = biological target: T3, CTLA4抗原; experiment: ELISA, antigen coated
重组人TIGIT蛋白抗原 [3] = biological target: T1, 重组人TIGIT蛋白抗原; experiment: ELISA, human TIGIT antigen coated

Sequence of PD-1抗原 (Q15116 25-167 limits assumed): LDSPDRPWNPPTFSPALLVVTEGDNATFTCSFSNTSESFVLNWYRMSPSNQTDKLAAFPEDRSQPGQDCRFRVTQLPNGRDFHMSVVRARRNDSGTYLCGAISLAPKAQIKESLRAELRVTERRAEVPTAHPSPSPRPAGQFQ
Sequence of PD-L1抗原 (Q9NZQ7 19-238 limits assumed): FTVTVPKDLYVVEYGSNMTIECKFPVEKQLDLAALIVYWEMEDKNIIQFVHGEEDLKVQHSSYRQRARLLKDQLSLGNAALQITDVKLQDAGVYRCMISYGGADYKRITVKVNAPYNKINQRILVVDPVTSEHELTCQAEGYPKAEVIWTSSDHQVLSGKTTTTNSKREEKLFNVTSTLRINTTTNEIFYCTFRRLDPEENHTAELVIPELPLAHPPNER

| Binder | EC50 (重组人TIGIT蛋白抗原 [1]) [µg/mL] | EC50 (重组人TIGIT蛋白抗原 [2]) [µg/mL] | binding result (LAG-3抗原) | binding result (PD-1抗原) | binding result (PD-L1抗原) | binding result (CTLA4抗原) | EC50 (重组人TIGIT蛋白抗原 [3]) [µg/mL] |
| --- | --- | --- | --- | --- | --- | --- | --- |
| B1 | 0.099 | 0.125 |  |  |  |  |  |
| B2 | 0.0741 |  | no binding | no binding | no binding | no binding | 0.155 |
